{"source": "paper PMC11032491", "about": "“A conserved strategy to attack collagen: The activator domain in bacterial collagenases unwinds triple-helical collagen” (Proceedings of the National Academy of Sciences of the …, 2024)", "key": {"[1]": {"molecular_target": "type I gelatin (heat-denatured acid-soluble type I atelocollagen from bovine hides) (bovine) (UniProt P02453)", "sequence (P02453 23-1217, chain 1 of 2)": "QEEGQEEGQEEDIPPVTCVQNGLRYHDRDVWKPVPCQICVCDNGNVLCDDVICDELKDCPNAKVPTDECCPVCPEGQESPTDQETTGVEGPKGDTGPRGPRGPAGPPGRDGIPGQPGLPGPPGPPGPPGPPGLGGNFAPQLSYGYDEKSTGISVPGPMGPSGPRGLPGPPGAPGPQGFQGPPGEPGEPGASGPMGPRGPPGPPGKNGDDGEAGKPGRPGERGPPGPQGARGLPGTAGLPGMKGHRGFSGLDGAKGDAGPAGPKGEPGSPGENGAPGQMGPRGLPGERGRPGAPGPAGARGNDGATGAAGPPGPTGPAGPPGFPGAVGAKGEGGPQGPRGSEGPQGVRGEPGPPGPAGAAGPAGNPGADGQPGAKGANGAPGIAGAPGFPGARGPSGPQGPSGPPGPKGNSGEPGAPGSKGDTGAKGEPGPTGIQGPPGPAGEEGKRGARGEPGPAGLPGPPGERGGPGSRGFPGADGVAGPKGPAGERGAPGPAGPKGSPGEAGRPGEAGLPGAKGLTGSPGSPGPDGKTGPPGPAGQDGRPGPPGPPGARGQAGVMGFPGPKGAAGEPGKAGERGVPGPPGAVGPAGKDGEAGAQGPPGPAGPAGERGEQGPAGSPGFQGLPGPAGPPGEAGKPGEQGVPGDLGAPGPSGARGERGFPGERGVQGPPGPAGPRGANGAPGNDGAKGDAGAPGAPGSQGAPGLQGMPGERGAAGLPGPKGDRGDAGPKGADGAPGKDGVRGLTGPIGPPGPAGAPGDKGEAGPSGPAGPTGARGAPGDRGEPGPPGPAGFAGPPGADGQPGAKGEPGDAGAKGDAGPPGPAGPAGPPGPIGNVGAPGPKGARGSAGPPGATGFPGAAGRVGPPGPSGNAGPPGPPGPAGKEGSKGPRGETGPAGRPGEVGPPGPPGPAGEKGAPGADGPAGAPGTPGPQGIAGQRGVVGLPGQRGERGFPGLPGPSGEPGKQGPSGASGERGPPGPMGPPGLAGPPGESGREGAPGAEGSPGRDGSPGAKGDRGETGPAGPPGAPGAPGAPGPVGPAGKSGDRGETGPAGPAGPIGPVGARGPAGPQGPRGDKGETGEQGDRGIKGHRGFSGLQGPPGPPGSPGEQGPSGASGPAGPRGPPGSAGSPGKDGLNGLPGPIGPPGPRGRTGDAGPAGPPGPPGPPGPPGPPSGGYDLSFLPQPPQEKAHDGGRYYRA", "sequence (P02465 80-1117, chain 2 of 2, further chain)": "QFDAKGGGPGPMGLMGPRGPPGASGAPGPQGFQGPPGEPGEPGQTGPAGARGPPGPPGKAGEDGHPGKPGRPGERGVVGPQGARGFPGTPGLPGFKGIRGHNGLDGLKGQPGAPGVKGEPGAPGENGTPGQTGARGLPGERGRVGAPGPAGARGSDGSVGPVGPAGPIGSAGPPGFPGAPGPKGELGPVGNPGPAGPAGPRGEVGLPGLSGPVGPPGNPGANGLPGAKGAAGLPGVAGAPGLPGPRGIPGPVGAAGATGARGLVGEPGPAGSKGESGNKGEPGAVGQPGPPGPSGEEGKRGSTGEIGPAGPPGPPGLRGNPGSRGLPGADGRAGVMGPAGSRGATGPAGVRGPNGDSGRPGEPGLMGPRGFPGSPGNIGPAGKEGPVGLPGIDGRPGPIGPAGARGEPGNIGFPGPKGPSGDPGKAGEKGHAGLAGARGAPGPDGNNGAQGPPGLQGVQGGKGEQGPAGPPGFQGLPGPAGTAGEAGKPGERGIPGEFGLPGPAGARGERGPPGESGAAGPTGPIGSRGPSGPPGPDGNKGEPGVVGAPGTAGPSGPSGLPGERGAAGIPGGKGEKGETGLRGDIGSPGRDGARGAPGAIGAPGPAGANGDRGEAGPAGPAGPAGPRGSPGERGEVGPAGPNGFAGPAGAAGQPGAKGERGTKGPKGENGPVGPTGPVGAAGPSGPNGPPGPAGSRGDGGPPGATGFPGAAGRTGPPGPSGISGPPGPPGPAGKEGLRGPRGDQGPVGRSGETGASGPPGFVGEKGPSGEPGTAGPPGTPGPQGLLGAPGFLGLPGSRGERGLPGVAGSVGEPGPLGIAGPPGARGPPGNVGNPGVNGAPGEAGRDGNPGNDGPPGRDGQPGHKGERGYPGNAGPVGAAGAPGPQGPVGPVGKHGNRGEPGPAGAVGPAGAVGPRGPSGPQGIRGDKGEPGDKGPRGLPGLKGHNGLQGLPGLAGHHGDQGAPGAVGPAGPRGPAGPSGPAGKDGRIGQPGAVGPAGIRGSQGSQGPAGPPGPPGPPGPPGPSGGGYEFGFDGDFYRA", "assay": "ELISA; indirect ELISA; gelatin coated on the plate (5 µg/ml); His-tagged collagenase variant in PBST with 1% BSA, serially diluted 1:3, 140 min at 37 °C; detected with anti-His-HRP; Hill fit; apparent Kd"}, "[2]": {"molecular_target": "soluble type I collagen (acid-soluble type I atelocollagen from bovine hides) (bovine) (UniProt P02453)", "sequence (P02453 162-1217, chain 1 of 2)": "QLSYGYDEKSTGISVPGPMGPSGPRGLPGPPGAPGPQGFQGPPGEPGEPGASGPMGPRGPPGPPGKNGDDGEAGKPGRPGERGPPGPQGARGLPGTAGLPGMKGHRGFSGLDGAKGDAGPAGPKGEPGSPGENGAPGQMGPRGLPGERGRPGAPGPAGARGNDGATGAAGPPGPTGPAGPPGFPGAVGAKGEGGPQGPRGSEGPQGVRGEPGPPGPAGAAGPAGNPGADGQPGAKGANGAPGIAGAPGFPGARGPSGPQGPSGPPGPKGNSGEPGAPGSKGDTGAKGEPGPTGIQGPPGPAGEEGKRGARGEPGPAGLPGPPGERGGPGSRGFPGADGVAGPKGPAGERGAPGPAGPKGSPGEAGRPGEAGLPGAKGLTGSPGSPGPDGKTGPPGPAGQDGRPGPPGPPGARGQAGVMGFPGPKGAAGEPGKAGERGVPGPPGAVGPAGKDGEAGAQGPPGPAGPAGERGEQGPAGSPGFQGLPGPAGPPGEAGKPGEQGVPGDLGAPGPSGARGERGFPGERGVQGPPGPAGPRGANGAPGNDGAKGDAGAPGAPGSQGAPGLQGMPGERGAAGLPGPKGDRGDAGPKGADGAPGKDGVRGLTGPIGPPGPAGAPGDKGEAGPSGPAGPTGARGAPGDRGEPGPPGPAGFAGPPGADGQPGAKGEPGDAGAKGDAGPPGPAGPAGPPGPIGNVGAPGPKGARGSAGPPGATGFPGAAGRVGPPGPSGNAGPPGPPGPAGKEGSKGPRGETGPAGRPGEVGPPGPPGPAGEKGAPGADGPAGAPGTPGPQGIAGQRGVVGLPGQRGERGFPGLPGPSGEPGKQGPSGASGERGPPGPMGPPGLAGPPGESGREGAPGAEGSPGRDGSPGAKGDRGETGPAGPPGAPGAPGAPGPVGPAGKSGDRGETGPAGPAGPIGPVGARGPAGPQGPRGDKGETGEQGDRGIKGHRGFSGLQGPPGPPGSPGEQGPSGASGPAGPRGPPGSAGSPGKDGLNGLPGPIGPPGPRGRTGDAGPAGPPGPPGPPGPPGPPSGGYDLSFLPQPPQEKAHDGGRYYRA", "sequence (P02465 80-1117, chain 2 of 2, further chain)": "as the sequence (P02465 80-1117, chain 2 of 2, further chain) above", "assay": "ELISA; indirect ELISA; soluble type I collagen coated on the plate (5 µg/ml); His-tagged collagenase variant in PBST with 1% BSA, serially diluted 1:3, 140 min at room temperature (25 °C); detected with anti-His-HRP; Hill fit; apparent Kd"}}, "data": [{"substance": "ColQ1-CU G472V E166A (from UniProt B9J3S4 94-965) (domain or fragment)", "values": [{"measurement": "Kd", "setting": "[1]", "result": 5000, "unit": "nM"}]}, {"substance": "ColQ1-CU G472V F123A (from UniProt B9J3S4 94-965) (domain or fragment)", "values": [{"measurement": "Kd", "setting": "[1]", "result": 1600, "unit": "nM"}]}, {"substance": "ColQ1-CU G472V F176A (from UniProt B9J3S4 94-965) (domain or fragment)", "values": [{"measurement": "Kd", "setting": "[1]", "result": 1200, "unit": "nM"}, {"measurement": "Kd", "setting": "[2]", "result": 80, "unit": "nM"}]}, {"substance": "ColQ1-CU G472V N317A (control mutant) (from UniProt B9J3S4 94-965) (domain or fragment)", "values": [{"measurement": "Kd", "setting": "[1]", "result": 2300, "unit": "nM"}, {"measurement": "Kd", "setting": "[2]", "result": 2800, "unit": "nM"}]}, {"substance": "ColQ1-CU G472V R169A (from UniProt B9J3S4 94-965) (domain or fragment)", "values": [{"measurement": "Kd", "setting": "[1]", "result": 2800, "unit": "nM"}, {"measurement": "Kd", "setting": "[2]", "result": 170, "unit": "nM"}]}, {"substance": "ColQ1-CU G472V Y173A (from UniProt B9J3S4 94-965) (domain or fragment)", "values": [{"measurement": "Kd", "setting": "[1]", "result": 24000, "unit": "nM"}]}, {"substance": "ColQ1-CU G472V Y251A (control mutant) (from UniProt B9J3S4 94-965) (domain or fragment)", "values": [{"measurement": "Kd", "setting": "[1]", "result": 2500, "unit": "nM"}, {"measurement": "Kd", "setting": "[2]", "result": 2800, "unit": "nM"}]}, {"substance": "ColQ1-CU G472V Y270A (from UniProt B9J3S4 94-965) (domain or fragment)", "values": [{"measurement": "Kd", "setting": "[1]", "result": 4200, "unit": "nM"}, {"measurement": "Kd", "setting": "[2]", "result": 190, "unit": "nM"}]}, {"substance": "ColQ1-CU G472V Y321A (control mutant) (from UniProt B9J3S4 94-965) (domain or fragment)", "values": [{"measurement": "Kd", "setting": "[1]", "result": 2500, "unit": "nM"}, {"measurement": "Kd", "setting": "[2]", "result": 4000, "unit": "nM"}]}]}
